Laboratory results taken from IntAct's records for PubMed 18378898.

B1: Growth/differentiation factor 11 (Mus musculus), Q9Z1W4 (parent)
chain: MVLAAPLLLGFLLLALELRPRGEAAEGPAAAAAAAAAAAGVGGERSSRPAPSAPPEPDGCPVCVWRQHSRELRLESIKSQILSKLRLKEAPNISREVVKQLLPKAPPLQQILDLHDFQGDALQPEDFLEEDEYHATTETVISMAQETDPAVQTDGSPLCCHFHFSPKVMFTKVLKAQLWVYLRPVPRPATVYLQILRLKPLTGEGTAGGGGGGRRHIRIRSLKIELHSRSGHWQSIDFKQVLHSWFRQPQSNWGIEINAFDPSGTDLAVTSLGPGAEGLHPFMELRVLENTKRSRRNLGLDCDEHSSESRCCRYPLTVDFEAFGWDWIIAPKRYKANYCSGQCEYMFMQKYPHTHLVQQANPRGSAGPCCTPTKMSPINMLYFNDKQQIIYGKIPGMVVDRCGCS
partner: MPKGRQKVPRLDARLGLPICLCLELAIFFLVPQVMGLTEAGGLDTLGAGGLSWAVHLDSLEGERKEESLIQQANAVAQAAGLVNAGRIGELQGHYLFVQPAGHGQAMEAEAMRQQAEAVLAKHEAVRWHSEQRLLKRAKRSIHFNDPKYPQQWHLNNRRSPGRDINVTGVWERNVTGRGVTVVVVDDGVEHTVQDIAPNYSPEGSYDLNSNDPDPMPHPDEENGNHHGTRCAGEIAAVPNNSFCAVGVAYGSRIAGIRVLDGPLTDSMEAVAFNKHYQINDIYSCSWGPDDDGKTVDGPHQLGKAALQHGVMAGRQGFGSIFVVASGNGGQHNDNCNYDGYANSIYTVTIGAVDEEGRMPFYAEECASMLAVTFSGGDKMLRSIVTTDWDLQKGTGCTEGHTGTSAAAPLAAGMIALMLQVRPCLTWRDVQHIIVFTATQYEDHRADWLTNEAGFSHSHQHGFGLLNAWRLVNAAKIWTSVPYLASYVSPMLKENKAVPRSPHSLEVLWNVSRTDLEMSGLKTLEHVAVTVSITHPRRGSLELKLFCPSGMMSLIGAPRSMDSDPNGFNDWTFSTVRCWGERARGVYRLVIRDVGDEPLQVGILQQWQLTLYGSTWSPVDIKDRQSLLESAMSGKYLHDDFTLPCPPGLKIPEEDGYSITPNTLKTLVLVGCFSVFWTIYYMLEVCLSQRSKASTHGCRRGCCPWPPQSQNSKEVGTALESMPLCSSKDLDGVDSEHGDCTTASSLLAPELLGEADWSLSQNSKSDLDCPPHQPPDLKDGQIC
B2: Growth/differentiation factor 11 (Mus musculus), Q9Z1W4 (parent)
chain: B1 chain
partner: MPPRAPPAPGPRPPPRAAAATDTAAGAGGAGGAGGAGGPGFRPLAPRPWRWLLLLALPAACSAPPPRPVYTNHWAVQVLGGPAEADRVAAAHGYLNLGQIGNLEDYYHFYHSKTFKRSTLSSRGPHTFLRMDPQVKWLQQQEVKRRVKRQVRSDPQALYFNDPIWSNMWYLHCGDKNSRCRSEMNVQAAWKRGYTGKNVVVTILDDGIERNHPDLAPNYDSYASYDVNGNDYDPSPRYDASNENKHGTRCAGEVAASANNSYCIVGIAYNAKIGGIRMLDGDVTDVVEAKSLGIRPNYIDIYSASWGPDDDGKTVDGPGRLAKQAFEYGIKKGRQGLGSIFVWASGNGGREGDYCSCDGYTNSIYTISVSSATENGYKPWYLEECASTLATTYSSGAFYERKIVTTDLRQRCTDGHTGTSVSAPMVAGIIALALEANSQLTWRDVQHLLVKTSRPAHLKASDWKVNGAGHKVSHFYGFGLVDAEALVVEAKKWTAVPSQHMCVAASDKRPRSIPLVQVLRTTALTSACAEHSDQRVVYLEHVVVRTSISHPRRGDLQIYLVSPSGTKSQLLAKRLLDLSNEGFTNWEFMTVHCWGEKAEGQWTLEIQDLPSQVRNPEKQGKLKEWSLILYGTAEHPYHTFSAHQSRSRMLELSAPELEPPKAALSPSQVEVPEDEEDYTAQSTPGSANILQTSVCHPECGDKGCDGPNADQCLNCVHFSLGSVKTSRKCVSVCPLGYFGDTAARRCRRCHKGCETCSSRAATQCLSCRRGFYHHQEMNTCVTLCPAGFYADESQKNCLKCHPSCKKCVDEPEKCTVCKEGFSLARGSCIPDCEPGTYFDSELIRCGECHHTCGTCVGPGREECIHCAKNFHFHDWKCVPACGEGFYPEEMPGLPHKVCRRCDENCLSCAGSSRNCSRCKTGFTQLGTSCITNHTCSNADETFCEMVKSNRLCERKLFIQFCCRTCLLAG
B3: Growth/differentiation factor 11 (Mus musculus), Q9Z1W4 (parent)
chain: B1 chain
B4: Growth/differentiation factor 11 (Mus musculus), Q9Z1W4 (parent)
chain: B1 chain
partner: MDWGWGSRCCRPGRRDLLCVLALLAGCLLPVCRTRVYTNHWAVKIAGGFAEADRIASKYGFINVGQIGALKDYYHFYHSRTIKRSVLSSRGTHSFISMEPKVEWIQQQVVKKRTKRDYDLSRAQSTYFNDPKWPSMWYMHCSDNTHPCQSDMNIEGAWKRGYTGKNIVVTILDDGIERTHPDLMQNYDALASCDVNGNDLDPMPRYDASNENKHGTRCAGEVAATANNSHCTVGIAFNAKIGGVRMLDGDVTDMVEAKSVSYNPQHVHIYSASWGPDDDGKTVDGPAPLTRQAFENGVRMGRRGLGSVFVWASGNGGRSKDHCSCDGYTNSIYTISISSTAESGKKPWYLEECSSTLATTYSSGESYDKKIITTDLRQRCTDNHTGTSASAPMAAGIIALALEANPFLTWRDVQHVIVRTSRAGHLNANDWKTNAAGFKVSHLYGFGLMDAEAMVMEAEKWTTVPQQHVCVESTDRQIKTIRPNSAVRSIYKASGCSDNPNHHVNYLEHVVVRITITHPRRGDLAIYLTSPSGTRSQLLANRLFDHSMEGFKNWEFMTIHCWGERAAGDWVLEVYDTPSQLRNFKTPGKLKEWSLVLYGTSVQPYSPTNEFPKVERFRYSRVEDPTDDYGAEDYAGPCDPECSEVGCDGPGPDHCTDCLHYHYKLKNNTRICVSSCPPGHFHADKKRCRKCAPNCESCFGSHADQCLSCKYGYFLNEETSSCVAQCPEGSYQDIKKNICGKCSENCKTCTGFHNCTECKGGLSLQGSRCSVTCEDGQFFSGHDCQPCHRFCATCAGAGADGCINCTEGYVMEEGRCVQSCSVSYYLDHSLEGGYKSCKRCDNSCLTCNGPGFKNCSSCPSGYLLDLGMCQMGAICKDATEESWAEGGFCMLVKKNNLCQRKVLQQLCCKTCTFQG

Variants of: B1
Settings: with pcsk7_rat Pcsk7, Q62849

| Variant | effect of a mutation on the interaction |
| --- | --- |
| MVLAAPLLLGFLLLALELRPRGEAAEGPAAAAAAAAAAAGVGGERSSRPAPSAPPEPDGCPVCVWRQHSRELRLESIKSQILSKLRLKEAPNISREVVKQLLPKAPPLQQILDLHDFQGDALQPEDFLEEDEYHATTETVISMAQETDPAVQTDGSPLCCHFHFSPKVMFTKVLKAQLWVYLRPVPRPATVYLQILRLKPLTGEGTAGGGGGGRRHIRIRSLKIELHSRSGHWQSIDFKQVLHSWFRQPQSNWGIEINAFDPSGTDLAVTSLGPGAEGLHPFMELRVLENTKRSRRDLGLDCDEHSSESRCCRYPLTVDFEAFGWDWIIAPKRYKANYCSGQCEYMFMQKYPHTHLVQQANPRGSAGPCCTPTKMSPINMLYFNDKQQIIYGKIPGMVVDRCGCS [N297D] | increasing interaction |

Variants of: B2
Settings: with PCSK6, P29122-1

| Variant | effect of a mutation on the interaction |
| --- | --- |
| MVLAAPLLLGFLLLALELRPRGEAAEGPAAAAAAAAAAAGVGGERSSRPAPSAPPEPDGCPVCVWRQHSRELRLESIKSQILSKLRLKEAPNISREVVKQLLPKAPPLQQILDLHDFQGDALQPEDFLEEDEYHATTETVISMAQETDPAVQTDGSPLCCHFHFSPKVMFTKVLKAQLWVYLRPVPRPATVYLQILRLKPLTGEGTAGGGGGGRRHIRIRSLKIELHSRSGHWQSIDFKQVLHSWFRQPQSNWGIEINAFDPSGTDLAVTSLGPGAEGLHPFMELRVLENTKRSRRDLGLDCDEHSSESRCCRYPLTVDFEAFGWDWIIAPKRYKANYCSGQCEYMFMQKYPHTHLVQQANPRGSAGPCCTPTKMSPINMLYFNDKQQIIYGKIPGMVVDRCGCS [N297D] | increasing interaction |

Variants of: B3
Settings: with furin_human FURIN

| Variant | effect of a mutation on the interaction |
| --- | --- |
| MVLAAPLLLGFLLLALELRPRGEAAEGPAAAAAAAAAAAGVGGERSSRPAPSAPPEPDGCPVCVWRQHSRELRLESIKSQILSKLRLKEAPNISREVVKQLLPKAPPLQQILDLHDFQGDALQPEDFLEEDEYHATTETVISMAQETDPAVQTDGSPLCCHFHFSPKVMFTKVLKAQLWVYLRPVPRPATVYLQILRLKPLTGEGTAGGGGGGRRHIRIRSLKIELHSRSGHWQSIDFKQVLHSWFRQPQSNWGIEINAFDPSGTDLAVTSLGPGAEGLHPFMELRVLENTKRSRRDLGLDCDEHSSESRCCRYPLTVDFEAFGWDWIIAPKRYKANYCSGQCEYMFMQKYPHTHLVQQANPRGSAGPCCTPTKMSPINMLYFNDKQQIIYGKIPGMVVDRCGCS [N297D] | increasing interaction |

Variants of: B4
Settings: with Pcsk5, P41413-2

| Variant | effect of a mutation on the interaction |
| --- | --- |
| MVLAAPLLLGFLLLALELRPRGEAAEGPAAAAAAAAAAAGVGGERSSRPAPSAPPEPDGCPVCVWRQHSRELRLESIKSQILSKLRLKEAPNISREVVKQLLPKAPPLQQILDLHDFQGDALQPEDFLEEDEYHATTETVISMAQETDPAVQTDGSPLCCHFHFSPKVMFTKVLKAQLWVYLRPVPRPATVYLQILRLKPLTGEGTAGGGGGGRRHIRIRSLKIELHSRSGHWQSIDFKQVLHSWFRQPQSNWGIEINAFDPSGTDLAVTSLGPGAEGLHPFMELRVLENTKRSRRDLGLDCDEHSSESRCCRYPLTVDFEAFGWDWIIAPKRYKANYCSGQCEYMFMQKYPHTHLVQQANPRGSAGPCCTPTKMSPINMLYFNDKQQIIYGKIPGMVVDRCGCS [N297D] | increasing interaction |
